Results as given in PMC4520625.

What was measured:
[1] = biological target: galectin-3 carbohydrate recognition domain (CRD) obtained by proteolytic truncation (human); experiment: ITC
[2] = biological target: full-length human galectin-3 (human) (UniProt P17931); experiment: ITC
full-length human galectin-3 (human), sequence (P17931 whole entry): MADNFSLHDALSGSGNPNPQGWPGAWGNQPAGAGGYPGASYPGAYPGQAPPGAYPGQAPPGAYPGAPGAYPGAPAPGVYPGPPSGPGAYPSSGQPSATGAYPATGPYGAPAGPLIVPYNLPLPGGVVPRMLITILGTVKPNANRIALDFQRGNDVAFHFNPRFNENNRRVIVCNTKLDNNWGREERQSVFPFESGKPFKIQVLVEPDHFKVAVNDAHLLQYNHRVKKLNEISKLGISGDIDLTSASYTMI

dH [1]: -4.11 kcal/mol
dH [2]: -1.33 kcal/mol
Substance: MUC1-Ser5 glycopeptide carrying the TF antigen
